# Test: soluble on expression in E. coli; label from the status in PepcDB or PDB records
row,Sequence,soluble on expression in E. coli
1,MAAIKINKLLTIESNSSHTLLESMEQAGLEPEYNCRDGHCGACRCQLISGEVEYVGFAMAYTQGNEILPCICRAKTALEIEQVTYQLKAKRA,not soluble
2,MTTVRQRIDTQHRDAIHDAQLNIYGSRLATCGSDRLVKIFEVRPNGQSYPMAELVGHSGPVWKVSWAHPKYGGLLASASYDKKVIIWNEQQGRWQKAYEWAAHEASTTCVAFAPHQYGLMLASASADGDIGILRYDNSSNEWISSKIQKCHEQGVNSVCWAPGSADPAAKKRLVSAGNDKNVKIWAFDDATNEWILEKTLAGHTDFVREAAWCPVTNNGQHTIVSCGMEGNLVLFRTSNIETEEWKAKLLETAPCALYHSSFSPCGSFLSVAGDDNVITIWRENLQGQWIKVPRDNKEREGMSQAVGAPGAQR,not soluble
3,MKKVSVLIVAKNEANHIQECIESCRFDKEVIVIDDYSTDNTAEIAEGLGAKVFRRHLNGDFGAQKTFAIEQAGGEWVFLIDADERCTPELSDEISKIVQTGDYAAYFVERRNLFPNHPATHGAMRPDSVCRLMPKKDSSVQGKVHETVQTPYPKRRLKHFMYHYTYDNWEQYFNKFNKYTSISAEKYREQGKPVRFVRDIILRPIWGFFKIYILNKGFLDGKMGWIMSVNHSYYTMIKYVKLYYLYKSGGKF,not soluble
4,MDQPISVTLSSTTDPLWRSCHEYDNEMVITVNGRRIFPTLEYTVTGLDTFKLYSMCMHLDLVDDKKLRFTGGQWAESVSTEKKDPPRKVWHHNGSQTGKDWMLRNVSFDQIRITNRKSKEDGNASYVHLLTQHRYIPVLTIYEGDQLVHTARIPHSQFISVTAYHKGELNTLKTNNNPYSTGSRKDRRRERQSPVYSEGTSSEKSISPPPAKKIKDMAPALPDYSVISKPNLLQSLIFPMIAEQPSTSQSPPAPPVFPFNPDLQMQMLQPFMLPQFGFPCGFPSINPFMNPFLTPFTSMFPTPTVSPDGEGVKLEPEAFVEV,not soluble
5,MGSSHHHHHHSSGRENLYFQGHMCILMATRAHPDYELILISNRDEFLARKTHATCWHNNDFILSPYDLAKTSAEKQIFGTWSGINKEGKLATILNLKLDNEQNNTKSRSRGLLPFIFLSIHKADFEDWDNYKKFEGHYDGLKSTGDFNFFYGDVIKKQYKVIDSLGRTFDVLSSTCRKDLDSYMVVSNGKFYDSSSIPGQAWEKVKVARDSLENLVLENIESDEEKIISSCFQLASKSSLPSTISNPDVLQMVDPNVTMNTIYVPPLRRPPRDDLGASIPDGDYYGTRSQIVLLVSKDSTRVTFIERVLYSSDEDVRKYSVTSPKEEKRFKFKL,soluble
6,MAHHHHHHMSTLRHSHEPSPYVQKGEDLSGQKLTPTIKSYRNMEFLNSYSGRMIRILCEFEEPKQRLQQHFIRTTVLFFGSARSMTQAQYDSTVQDIHSKLAAATDDSTKASLQNKLACLKKTQWMCKWVDVVENLARMVAEFSQKEQDMIIRSFRHIPDYFRLTPEDGSESLDDLQKRFHDLVVTTGGGPGFMEAANHGAESVPGAVTMGMGISLPFENGLNPHVTKGLAFEFHYFFTRKFWMMYSCRAIVIAPGGFGTLDEMFELLTLKQTKKIPSLPVVLLGKEFWQTVVNWQALANYGVISQEEIDSLLFTDSAEEAVEHIKDFYHRLASDSPSTE,not soluble
7,GPGSMRDHAPTSAASATALVNPSLPNSSVVDASLTGAQKKSGASSTRQRPPTPLPSTTPPRSEQHYRMTETEAWLSASFGNLATMGDSNGNSGGARRHGGPSPSAAFPLTFQEVPAAVVNHLLSRITLIQSEEQRHRDAVTVEGREVSGSPEMADGAPLPTRNECRAIGEFMLANDTLLGRRPREGIDASACAPSALRLVSMPLFGDHRLATYSPQGAAANRRRRRRSKNRRAAGGGGDDVGELPCLATGNAGLAEPQEARGNGAGATPSTTSHPYSPRTFFVATQSHDVRRRLAAVTPLLRLTTNPDALWIEQRGTAYHYGEEGAEARRPHIDMKGLGNCSSFSVAAAASSRGGRGSSEPGPPRSASFSHTPSFPHAATATTTVIAAAPQLSRADVAFMKHLGTAAEVPLPAKPSHHPHQQEQQQLQLRASPASDTGVSNRAPVDRKRRRQKGQNPLSMKKKQRREVFRAH,not soluble
8,MLLEPLKQLKQADARLNMTQGVLEGVVGEELGVLPGMDSIFSMLELERLVGFFRQATRKNHKGKPFDVIIYDGISTEETLRMIGLSSKTRLYAKYLRSLAEKTDLGRLTSPSIMRFVDESMNINSNKSPFDGMTSPAMWDTLERFLETGASAWRDPERFRSFLVMDPNNPMSVKAALRYWGCTVQAGSHVSGAFAISSSHLTSQIPKADFVPLPFASASVPFTITGLDWDKILLDQANSSIRELLSETVSHGTSLTQTVMFDTAKKLVTLFMPGFEKSEIKLYQYRGGSELLIEAGDQRRVIHLPSQIQGKVGGAKFVDRSLIVTMR,soluble
9,VKKIGILVLITALLAGIIPKSALAEEPKFNYVDAFAKSILFYEANWCGPDAGNNRIKWRGPCHIEDGKDVGLDLTGGFHDCGDHVKFGLPQCASASTLAWAYHEFSDVFIEKGQDEYMLNILKHFCDYFMKCYPEKNKFYYQVGDGDVDHQYWGPPELQSYDRPTYYVATPENPGSDVAGDTAAALALMYLNYKDRDLEYAEKCLAYAKDIYEFGMTYRGNSKGQSYYLPRDYLDELMWGSLWLYVATGEQKYMDNLEKLMVEKRIGDEAGNSFNDNWTQCWDYVLTGVFIKLATLTDKPLYKQIAEDHLDYWQNRIKSTPGGLKYLDSWGVCKYPAAESMVQLVYYKYTGDKRCLDFAKSQIDYILGDNPKKMSYVVGFGDNYPKFPHHRAASGRLEGPPADETKNDPQRHILYGALVGGADINDEYYDDIDKYVYSETGLDYNAGLVGALAGMSKYFGQGQMPEDTPGIEGEPPVYYADAKIYEENESGITVDLNMYNIVTSPPQYESDLSCRYFVDLSEYAGENIDMSKFVTKVYYSPAGATISELKPYDKEKNIYYVEISFPNPVYARTYVQFCIYYYENKLWDSSNDFSYQGIGDTYKTLENIPIYKNGVLVAGKEPSGAGPVEPTPPPKNYVYGDVNGDGKVNSTDCSIVKRYLLKNIEDFPYEYGKEAGDVNGDGKVNSTDYSLLKRFVLRNIDKFPVEQ,not soluble
10,MGRTQPCGGSCISSTYTLKKNRPCGWSAPPGSRILNQQPQGWPHNQTGCNVHKKIVVPSATDMATRFTQDSFVFDCLSMYYVIDDPWAENCLAAGVNATNVTFGTEQPWDIVLRDFDSGLEKIERSPYLALATNRQEIDAANKQGKLAVIIGTQGSAMVDLEFHRLRTMHRLGMRYFGLAYTGPTMFADGCGESRNAGLSFAGIELIDACNDLGLILDLSHVGHRSREETVARSRFPVCTHSNSYALNPNDRNTTDETARAIRAKGGIMGICGLPKTVHPENATLNELLDHADHWVKTIDAAHVGFGLDFVEAYKSDRSTMPAASRLWRTRRPDIFGTVEEFHLQDYPLGIASIKQLPNLTQGLFDRGYAEKEVAGIIGGNWLRHFTEVYG,not soluble
11,MSLLLFEQPVDLEKNNEDDTNIKPFAISRHFLLKLLLCGIILIELLLYSKCPKPIDNGPRTIANRSNTYFNGTHDFKTLTILISIDGFHPRLIDAKYTPFLYNLHNLRSPYDMNITTAPYMIPSFPTQTFPNHWSMVTGKYPIEHGIVSNIFWDNFTSSEFRPNNLDARIWSNTADPIWQLLQTESQGEYKVATHMWPGSEVVYEDHGDVPRERMPFYFGKFNQWEKLQDKLAQIFRYIDMPQLKDRPELVISYIPNVDSYGHSFGYDLRDKRLQKLIGEVDGFFLDLIEGLQKRNLLKISNVMIVSDHGMSNVNANDGEHVVVWERVFPADAMSAFISHLYNEGPMMMVCLKNPRDKQWICDLIEAQLEKAYGDEISRKFHVILKEDFDPSWKYFQYDNRKHRYDDRVGDIWILADEYYAIVKEMGDVPIGIMGTHGYNFNNCSDMASIFIGMGPMFNNEVVPPFENIEVYNMLIKASALLGEEKTKKEKSLLQEGHHHHHH,not soluble

# From the DeepSol protein solubility set
